The source of these data is publication doi:10.1101/2021.02.19.432005 (bioRxiv, 2021).

Read-outs that look alike come from different tables or passages of the source.

Sequences and labels used below:
B5: Notch1 full ectodomain (Notch1^fe), mouse (domain or fragment)
chain: ARGLRCSQPSGTCLNGGRCEVANGTEACVCSGAFVGQRCQDSNPCLSTPCKNAGTCHVVDHGGTVDYACSCPLGFSGPLCLTPLDNACLANPCRNGGTCDLLTLTEYKCRCPPGWSGKSCQQADPCASNPCANGGQCLPFESSYICRCPPGFHGPTCRQDVNECSQNPGLCRHGGTCHNEIGSYRCACRATHTGPHCELPYVPCSPSPCQNGGTCRPTGDTTHECACLPGFAGQNCEENVDDCPGNNCKNGGACVDGVNTYNCRCPPEWTGQYCTEDVDECQLMPNACQNGGTCHNTHGGYNCVCVNGWTGEDCSENIDDCASAACFQGATCHDRVASFYCECPHGRTGLLCHLNDACISNPCNEGSNCDTNPVNGKAICTCPSGYTGPACSQDVDECALGANPCEHAGKCLNTLGSFECQCLQGYTGPRCEIDVNECISNPCQNDATCLDQIGEFQCICMPGYEGVYCEINTDECASSPCLHNGHCMDKINEFQCQCPKGFNGHLCQYDVDECASTPCKNGAKCLDGPNTYTCVCTEGYTGTHCEVDIDECDPDPCHYGSCKDGVATFTCLCQPGYTGHHCETNINECHSQPCRHGGTCQDRDNSYLCLCLKGTTGPNCEINLDDCASNPCDSGTCLDKIDGYECACEPGYTGSMCNVNIDECAGSPCHNGGTCEDGIAGFTCRCPEGYHDPTCLSEVNECNSNPCIHGACRDGLNGYKCDCAPGWSGTNCDINNNECESNPCVNGGTCKDMTSGYVCTCREGFSGPNCQTNINECASNPCLNQGTCIDDVAGYKCNCPLPYTGATCEVVLAPCATSPCKNSGVCKESEDYESFSCVCPTGWQGQTCEVDINECVKSPCRHGASCQNTNGSYRCLCQAGYTGRNCESDIDDCRPNPCHNGGSCTDGINTAFCDCLPGFQGAFCEEDINECASNPCQNGANCTDCVDSYTCTCPVGFNGIHCENNTPDCTESSCFNGGTCVDGINSFTCLCPPGFTGSYCQYDVNECDSRPCLHGGTCQDSYGTYKCTCPQGYTGLNCQNLVRWCDSAPCKNGGRCWQTNTQYHCECRSGWTGVNCDVLSVSCEVAAQKRGIDVTLLCQHGGLCVDEGDKHYCHCQAGYTGSYCEDEVDECSPNPCQNGATCTDYLGGFSCKCVAGYHGSNCSEEINECLSQPCQNGGTCIDLTNSYKCSCPRGTQGVHCEINVDDCHPPLDPASRSPKCFNNGTCVDQVGGYTCTCPPGFVGERCEGDVNECLSNPCDPRGTQNCVQRVNDFHCECRAGHTGRRCESVINGCRGKPCKNGGVCAVASNTARGFICRCPAGFEGATCENDARTCGSLRCLNGGTCISGPRSPTCLCLGSFTGPECQFPASSPCVGSNPCYNQGTCEPTSENPFYRCLCPAKFNGLLCHILDYSFTGGAGRDIPPPQIEEACELPECQVDAGNKVCNLQCNNHACGWDGGDCSLNFNDPWKNCTQSLQCWKYFSDGHCDSQCNSAGCLFDGFDCQLTEGQCNPLYDQYCKDHFSDGHCDQGCNSAECEWDGLDCAEHVPERLAAGTLVLVVLLPPDQLRNNSFHFLRELSHVLHTNVVFKRDAQGQQMIFPYYGHEEELRKHPIKRSTVGWATSSLLPGTSGGRQRRELDPMDIRGSIVYLEIDNRQCVQSSSQCFQSATDVAAFLGALASLGSLNIPYKIEAVKSEPVE
B7: Jagged1^C2-EGF3,wt, C-terminally biotinylated SPR ligand (domain or fragment)
chain: ASGQFELEILSMQNVNGELQNGNCCGGVRNPGDRKCTRDECDTYFKVCLKEYQSRVTAGGPCSFGSGSTPVIGGNTFNLKASRGNDRNRIVLPFSFAWPRSYTLLVEAWDSSNDTIQPDSIIEKASHSGMINPSRQWQTLKQNTGIAHFEYQIRVTCDDHYYGFGCNKFCRPRDDFFGHYACDQNGNKTCMEGWMGPDCNKAICRQGCSPKHGSCKLPGDCRCQYGWQGLYCDKCIPHPGCVHGTCNEPWQCLCETNWGGQLCDKDLNYCGTHQPCLNRGTCSNTGPDKYQCSCPEGYSGPNCE
modifications: biotin on the C-terminal biotin acceptor peptide

The target in data set [1] is Jagged1^C2-EGF3,HA (mouse) (UniProt Q9QXX0). Description: MST.
The target in data set [2] is B5. Description: cross-linking.
Data set [3] addresses B7. Description: SPR.
For data set [4], the target named is Notch1^EGF33-NRR, C-terminally biotinylated SPR ligand (mouse) (UniProt Q01705). Description: SPR. Background: In SPR one partner is held on a chip, and binding of the other changes the refractive index at the surface.
Data set [5] deals with B7. Description: SPR. This is another data set of the same source.
The data set “cross-linking” concerns the molecule itself. Description: cross-linking.
A further data set deals with T1, Notch1^EGF33-NRR (mouse, UniProt Q01705 1267-1717).
T1 sequence: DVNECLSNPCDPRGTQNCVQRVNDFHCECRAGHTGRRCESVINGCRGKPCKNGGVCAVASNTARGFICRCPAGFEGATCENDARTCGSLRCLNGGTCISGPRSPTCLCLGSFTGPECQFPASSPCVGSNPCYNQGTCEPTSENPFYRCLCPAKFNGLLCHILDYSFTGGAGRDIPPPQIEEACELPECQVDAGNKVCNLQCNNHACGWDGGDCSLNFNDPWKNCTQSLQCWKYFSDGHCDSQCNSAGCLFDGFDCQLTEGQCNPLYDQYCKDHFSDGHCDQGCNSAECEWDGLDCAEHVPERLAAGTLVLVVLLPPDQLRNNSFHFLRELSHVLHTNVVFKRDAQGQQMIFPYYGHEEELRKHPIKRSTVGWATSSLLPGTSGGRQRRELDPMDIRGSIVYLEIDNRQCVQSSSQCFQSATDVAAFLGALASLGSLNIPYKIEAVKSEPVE
Description: SPR.

The data set “SEC-MALS” concerns the molecule itself. Description: SEC-MALS. For orientation: In gel filtration, larger molecules generally elute earlier.

The Kd is the free concentration of one partner at which half of the binding sites on the other are occupied at equilibrium, for simple one-to-one binding. A higher Kd goes with lower affinity. For the molecule “Notch1^EGF33-NRR (from UniProt Q01705 1267-1717) (domain or fragment)”, the Kd in data set [1] was determined as 500 nM.

B1: Jagged1 full ectodomain, wild type (Jagged1^fe,wt) (domain or fragment)
chain: ASGQFELEILSMQNVNGELQNGNCCGGVRNPGDRKCTRDECDTYFKVCLKEYQSRVTAGGPCSFGSGSTPVIGGNTFNLKASRGNDRNRIVLPFSFAWPRSYTLLVEAWDSSNDTIQPDSIIEKASHSGMINPSRQWQTLKQNTGIAHFEYQIRVTCDDHYYGFGCNKFCRPRDDFFGHYACDQNGNKTCMEGWMGPDCNKAICRQGCSPKHGSCKLPGDCRCQYGWQGLYCDKCIPHPGCVHGTCNEPWQCLCETNWGGQLCDKDLNYCGTHQPCLNRGTCSNTGPDKYQCSCPEGYSGPNCEIAEHACLSDPCHNRGSCKETSSGFECECSPGWTGPTCSTNIDDCSPNNCSHGGTCQDLVNGFKCVCPPQWTGKTCQLDANECEAKPCVNARSCKNLIASYYCDCLPGWMGQNCDININDCLGQCQNDASCRDLVNGYRCICPPGYAGDHCERDIDECASNPCLNGGHCQNEINRFQCLCPTGFSGNLCQLDIDYCEPNPCQNGAQCYNRASDYFCKCPEDYEGKNCSHLKDHCRTTTCEVIDSCTVAMASNDTPEGVRYISSNVCGPHGKCKSQSGGKFTCDCNKGFTGTYCHENINDCESNPCKNGGTCIDGVNSYKCICSDGWEGAHCENNINDCSQNPCHYGGTCRDLVNDFYCDCKNGWKGKTCHSRDSQCDEATCNNGGTCYDEVDTFKCMCPGGWEGTTCNIARNSSCLPNPCHNGGTCVVNGDSFTCVCKEGWEGPICTQNTNDCSPHPCYNSGTCVDGDNWYRCECAPGFAGPDCRININECQSSPCAFGATCVDEINGYQCICPPGHSGAKCHEVSGRSCITMGRVILDGAKWDDDCNTCQCLNGRVACSKVWCGPRPCRLHKSHNECPSGQSCIPVLDDQCFVRPCTGVGECRSSSLQPVKTKCTSDSYYQDNCANITFTFNKEMMSPGLTTEHICSELRNLNILKNVSAEYSIYIACEPSLSANNEIHVAISAEDIRDDGNPVKEITDKIIDLVSKRDGNSSLIAAVAEVRVQRRPLKNRTD
Take B1: the binding result in data set [2] is recorded as “binds”.

B2: Notch1^NRRΔloop (domain or fragment)
chain: EEACELPECQVDAGNKVCNLQCNNHACGWDGGDCSLNFNDPWKNCTQSLQCWKYFSDGHCDSQCNSAGCLFDGFDCQLTEGQCNPLYDQYCKDHFSDGHCDQGCNSAECEWDGLDCAEHVPERLAAGTLVLVVLLPPDQLRNNSFHFLRELSHVLHTNVVFKRDAQGQQMIFPYYGDIRGSIVYLEIDNRQCVQSSSQCFQSATDVAAFLGALASLGSLNIPYKIEAVKSEPVE
B2: the Kd in data set [3] is around 1000 nM.

B3: Jagged1^EGF8-11,Fc (Fc-tagged, covalently dimerized) (Fc fusion)
chain: DIDECASNPCLNGGHCQNEINRFQCLCPTGFSGNLCQLDIDYCEPNPCQNGAQCYNRASDYFCKCPEDYEGKNCSHLKDHCRTTTCEVIDSCTVAMASNDTPEGVRYISSNVCGPHGKCKSQSGGKFTCDCNKGFTGTYCHENINDCESNPCKNGGTCIDGVNSYKCICSDGWEGAHCE
For B3, the Kd in data set [4] turned out to be 290 nM; in data set [5] it was 340 nM.

B4: Jagged1^CRD,Fc (Fc-tagged, covalently dimerized) (Fc fusion)
chain: EVSGRSCITMGRVILDGAKWDDDCNTCQCLNGRVACSKVWCGPRPCRLHKSHNECPSGQSCIPVLDDQCFVRPCTGVGECRSSSLQPVKTKCTSDSYYQDNCANITFTFNKEMMSPGLTTEHICSELRNLNILKNVSAEYSIYIACEPSLSANNEIHVAISAEDIRDDGNPVKEITDKIIDLVSKRDGNSSLIAAVAEVRVQRRPLKNRTD
Consider B4, for which the Kd in data set [4] amounted to 290 nM; in data set [5], 930 nM. For the molecule B5, in “cross-linking”, the binding result is recorded as “binds”.

B6: Notch1^EGF8-13, C-terminally biotinylated SPR ligand (domain or fragment)
chain: EDVDECQLMPNACQNGGTCHNTHGGYNCVCVNGWTGEDCSENIDDCASAACFQGATCHDRVASFYCECPHGRTGLLCHLNDACISNPCNEGSNCDTNPVNGKAICTCPSGYTGPACSQDVDECALGANPCEHAGKCLNTLGSFECQCLQGYTGPRCEIDVNECISNPCQNDATCLDQIGEFQCICMPGYEGVYCEINTDECASSPCLHNGHCMDKINEFQCQCPKGFNGHLCQ
modifications: biotin on the C-terminal biotin acceptor peptide
The molecule B6 displayed a Kd in the data set with Notch1^EGF33-NRR of 115000 nM. For B7, the binding result in the data set with Notch1^EGF33-NRR is on record as “binds”.

B8: Notch1 negative regulatory region (Notch1^NRR) (domain or fragment)
chain: EEACELPECQVDAGNKVCNLQCNNHACGWDGGDCSLNFNDPWKNCTQSLQCWKYFSDGHCDSQCNSAGCLFDGFDCQLTEGQCNPLYDQYCKDHFSDGHCDQGCNSAECEWDGLDCAEHVPERLAAGTLVLVVLLPPDQLRNNSFHFLRELSHVLHTNVVFKRDAQGQQMIFPYYGHEEELRKHPIKRSTVGWATSSLLPGTSGGRQRRELDPMDIRGSIVYLEIDNRQCVQSSSQCFQSATDVAAFLGALASLGSLNIPYKIEAVKSEPVE
By stoichiometry N is commonly meant a count of units in the complex or per binding partner. For the molecule B8, the “stoichiometry N” value in “SEC-MALS” is 2.
